Assay results as given in US10941182 (Amgen, dated 2021).
Starred links: 1 amine or outer side, 2 acyl side, 3 side chain; linkers in the order of their positions; H or OH if unused. Non-standard residues stand in square brackets, D forms with d. *: point of attachment. dBip = N[C@H](Cc1ccc(-c2ccccc2)cc1)C(=O)O; Oic = O=C(O)[C@@H]1C[C@@H]2CCCC[C@@H]2N1; Phe(4-Cl) = N[C@@H](Cc1ccc(Cl)cc1)C(=O)O; Phe(4-I) = N[C@@H](Cc1ccc(I)cc1)C(=O)O; γGlu = O=C(O)[C@H](CCC(=O)[*:2])N[*:1]; Tridecanoyl = CCCCCCCCCCCCC(=O)*; hArg = N=C(N)NCCCC[C@H](N)C(=O)O; Cha = N[C@@H](CC1CCCCC1)C(=O)O; NMeL = CN[C@@H](CC(C)C)C(=O)O; Nle = CCCC[C@H](N)C(=O)O; AEEA = NCCOCCOCC(=O)O

T1: human APJ receptor (human, UniProt P35414 1-380)
T1 sequence (looked up): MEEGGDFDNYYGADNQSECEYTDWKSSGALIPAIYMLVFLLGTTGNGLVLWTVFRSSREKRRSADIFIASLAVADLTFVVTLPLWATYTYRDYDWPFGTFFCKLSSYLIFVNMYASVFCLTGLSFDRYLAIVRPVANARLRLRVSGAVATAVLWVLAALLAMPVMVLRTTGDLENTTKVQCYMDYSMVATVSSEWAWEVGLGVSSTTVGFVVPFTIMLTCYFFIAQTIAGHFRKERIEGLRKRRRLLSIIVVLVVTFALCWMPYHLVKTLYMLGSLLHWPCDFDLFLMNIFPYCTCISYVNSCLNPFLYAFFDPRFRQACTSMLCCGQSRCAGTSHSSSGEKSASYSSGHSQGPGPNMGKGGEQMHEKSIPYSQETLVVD

T2: rat APJ receptor (rat, UniProt Q9JHG3 1-377)
T2 sequence (looked up): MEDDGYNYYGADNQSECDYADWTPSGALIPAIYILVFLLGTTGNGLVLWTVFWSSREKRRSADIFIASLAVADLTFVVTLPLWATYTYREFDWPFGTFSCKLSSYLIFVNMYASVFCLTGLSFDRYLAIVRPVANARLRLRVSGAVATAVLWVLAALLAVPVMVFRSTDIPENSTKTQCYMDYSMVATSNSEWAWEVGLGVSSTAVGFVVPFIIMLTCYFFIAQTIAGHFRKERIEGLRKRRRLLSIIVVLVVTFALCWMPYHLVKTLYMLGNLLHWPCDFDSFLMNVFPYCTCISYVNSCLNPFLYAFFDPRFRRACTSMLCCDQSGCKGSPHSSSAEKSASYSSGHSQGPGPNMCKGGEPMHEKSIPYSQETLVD


Columns and labels:
[1] = target: T1, human APJ receptor; experiment: cell-based or functional assay
[2] = target: T2, rat APJ receptor; experiment: cell-based or functional assay

EC50 Human APJ Receptor [1] [nM]	EC50 Rat APJ Receptor [2] [nM]	Binder
8.42	21.4	Tridecanoyl-[γGlu][AEEA][AEEA][dR]QRP[dR][Cha]SHKG[Oic][Phe(4-I)]P[dBip]-OH (SMILES CCCCCCCCCCCCC(=O)N[C@@H](CCC(=O)NCCOCCOCC(=O)NCCOCCOCC(=O)N[C@H](CCCNC(=N)N)C(=O)N[C@@H](CCC(N)=O)C(=O)N[C@@H](CCCNC(=N)N)C(=O)N1CCC[C@H]1C(=O)N[C@H](CCCNC(=N)N)C(=O)N[C@@H](CC1CCCCC1)C(=O)N[C@@H](CO)C(=O)N[C@@H](Cc1c[nH]cn1)C(=O)N[C@@H](CCCCN)C(=O)NCC(=O)N1[C@H](C(=O)N[C@@H](Cc2ccc(I)cc2)C(=O)N2CCC[C@H]2C(=O)N[C@H](Cc2ccc(-c3ccccc3)cc2)C(=O)O)C[C@@H]2CCCC[C@@H]21)C(=O)O) [apelin polypeptide SEQ ID NO: 215]
1.23	6.87	Tridecanoyl-[γGlu][AEEA][AEEA]QRP[hArg][NMeL]SHKG[Oic][Phe(4-I)]P[dBip]-OH (SMILES CCCCCCCCCCCCC(=O)N[C@@H](CCC(=O)NCCOCCOCC(=O)NCCOCCOCC(=O)N[C@@H](CCC(N)=O)C(=O)N[C@@H](CCCNC(=N)N)C(=O)N1CCC[C@H]1C(=O)N[C@@H](CCCCNC(=N)N)C(=O)N(C)[C@@H](CC(C)C)C(=O)N[C@@H](CO)C(=O)N[C@@H](Cc1c[nH]cn1)C(=O)N[C@@H](CCCCN)C(=O)NCC(=O)N1[C@H](C(=O)N[C@@H](Cc2ccc(I)cc2)C(=O)N2CCC[C@H]2C(=O)N[C@H](Cc2ccc(-c3ccccc3)cc2)C(=O)O)C[C@@H]2CCCC[C@@H]21)C(=O)O) [apelin polypeptide SEQ ID NO: 222]
28.2	102	Tridecanoyl-[γGlu][AEEA][AEEA]QRP[dR][Cha]SHKG[Oic][Phe(4-I)]P[dBip]-OH (SMILES CCCCCCCCCCCCC(=O)N[C@@H](CCC(=O)NCCOCCOCC(=O)NCCOCCOCC(=O)N[C@@H](CCC(N)=O)C(=O)N[C@@H](CCCNC(=N)N)C(=O)N1CCC[C@H]1C(=O)N[C@H](CCCNC(=N)N)C(=O)N[C@@H](CC1CCCCC1)C(=O)N[C@@H](CO)C(=O)N[C@@H](Cc1c[nH]cn1)C(=O)N[C@@H](CCCCN)C(=O)NCC(=O)N1[C@H](C(=O)N[C@@H](Cc2ccc(I)cc2)C(=O)N2CCC[C@H]2C(=O)N[C@H](Cc2ccc(-c3ccccc3)cc2)C(=O)O)C[C@@H]2CCCC[C@@H]21)C(=O)O) [apelin polypeptide SEQ ID NO: 224]
4.67	8.83	Tridecanoyl-[γGlu][AEEA][AEEA][dR]QRP[hArg][Cha]SHKG[Oic][Phe(4-I)]P[dBip]-OH (SMILES CCCCCCCCCCCCC(=O)N[C@@H](CCC(=O)NCCOCCOCC(=O)NCCOCCOCC(=O)N[C@H](CCCNC(=N)N)C(=O)N[C@@H](CCC(N)=O)C(=O)N[C@@H](CCCNC(=N)N)C(=O)N1CCC[C@H]1C(=O)N[C@@H](CCCCNC(=N)N)C(=O)N[C@@H](CC1CCCCC1)C(=O)N[C@@H](CO)C(=O)N[C@@H](Cc1c[nH]cn1)C(=O)N[C@@H](CCCCN)C(=O)NCC(=O)N1[C@H](C(=O)N[C@@H](Cc2ccc(I)cc2)C(=O)N2CCC[C@H]2C(=O)N[C@H](Cc2ccc(-c3ccccc3)cc2)C(=O)O)C[C@@H]2CCCC[C@@H]21)C(=O)O) [apelin polypeptide SEQ ID NO: 217]
11.3	52.8	Tridecanoyl-[γGlu][AEEA][AEEA]QRP[hArg][Cha]SHKG[Oic][Phe(4-I)]P[dBip]-OH (SMILES CCCCCCCCCCCCC(=O)N[C@@H](CCC(=O)NCCOCCOCC(=O)NCCOCCOCC(=O)N[C@@H](CCC(N)=O)C(=O)N[C@@H](CCCNC(=N)N)C(=O)N1CCC[C@H]1C(=O)N[C@@H](CCCCNC(=N)N)C(=O)N[C@@H](CC1CCCCC1)C(=O)N[C@@H](CO)C(=O)N[C@@H](Cc1c[nH]cn1)C(=O)N[C@@H](CCCCN)C(=O)NCC(=O)N1[C@H](C(=O)N[C@@H](Cc2ccc(I)cc2)C(=O)N2CCC[C@H]2C(=O)N[C@H](Cc2ccc(-c3ccccc3)cc2)C(=O)O)C[C@@H]2CCCC[C@@H]21)C(=O)O) [apelin polypeptide SEQ ID NO: 223]
2.72	27.6	Tridecanoyl-[γGlu][AEEA][AEEA][dR]Q[hArg]P[dR][NMeL]SHKG[Oic][Nle]P[dBip]-OH (SMILES CCCCCCCCCCCCC(=O)N[C@@H](CCC(=O)NCCOCCOCC(=O)NCCOCCOCC(=O)N[C@H](CCCNC(=N)N)C(=O)N[C@@H](CCC(N)=O)C(=O)N[C@@H](CCCCNC(=N)N)C(=O)N1CCC[C@H]1C(=O)N[C@H](CCCNC(=N)N)C(=O)N(C)[C@@H](CC(C)C)C(=O)N[C@@H](CO)C(=O)N[C@@H](Cc1c[nH]cn1)C(=O)N[C@@H](CCCCN)C(=O)NCC(=O)N1[C@H](C(=O)N[C@@H](CCCC)C(=O)N2CCC[C@H]2C(=O)N[C@H](Cc2ccc(-c3ccccc3)cc2)C(=O)O)C[C@@H]2CCCC[C@@H]21)C(=O)O) [apelin polypeptide SEQ ID NO: 220]
0.171	1.59	Ac-RQRP[hArg][Cha]SHKG[Oic][Nle]P[Phe(4-Cl)]-OH (SMILES CCCC[C@H](NC(=O)[C@@H]1C[C@@H]2CCCC[C@@H]2N1C(=O)CNC(=O)[C@H](CCCCN)NC(=O)[C@H](Cc1c[nH]cn1)NC(=O)[C@H](CO)NC(=O)[C@H](CC1CCCCC1)NC(=O)[C@H](CCCCNC(=N)N)NC(=O)[C@@H]1CCCN1C(=O)[C@H](CCCNC(=N)N)NC(=O)[C@H](CCC(N)=O)NC(=O)[C@H](CCCNC(=N)N)NC(C)=O)C(=O)N1CCC[C@H]1C(=O)N[C@@H](Cc1ccc(Cl)cc1)C(=O)O) [apelin polypeptide SEQ ID NO: 17]
0.196	1.93	Tridecanoyl-[γGlu][AEEA][AEEA][dR]Q[hArg]P[dR][Cha]SHKG[Oic][Nle]P[Phe(4-Cl)]-OH (SMILES CCCCCCCCCCCCC(=O)N[C@@H](CCC(=O)NCCOCCOCC(=O)NCCOCCOCC(=O)N[C@H](CCCNC(=N)N)C(=O)N[C@@H](CCC(N)=O)C(=O)N[C@@H](CCCCNC(=N)N)C(=O)N1CCC[C@H]1C(=O)N[C@H](CCCNC(=N)N)C(=O)N[C@@H](CC1CCCCC1)C(=O)N[C@@H](CO)C(=O)N[C@@H](Cc1c[nH]cn1)C(=O)N[C@@H](CCCCN)C(=O)NCC(=O)N1[C@H](C(=O)N[C@@H](CCCC)C(=O)N2CCC[C@H]2C(=O)N[C@@H](Cc2ccc(Cl)cc2)C(=O)O)C[C@@H]2CCCC[C@@H]21)C(=O)O) [apelin polypeptide SEQ ID NO: 221]
10.8	22.5	Tridecanoyl-[γGlu][AEEA][AEEA]RQRP[dR][Cha]SHKG[Oic][Phe(4-I)]P[dBip]-OH (SMILES CCCCCCCCCCCCC(=O)N[C@@H](CCC(=O)NCCOCCOCC(=O)NCCOCCOCC(=O)N[C@@H](CCCNC(=N)N)C(=O)N[C@@H](CCC(N)=O)C(=O)N[C@@H](CCCNC(=N)N)C(=O)N1CCC[C@H]1C(=O)N[C@H](CCCNC(=N)N)C(=O)N[C@@H](CC1CCCCC1)C(=O)N[C@@H](CO)C(=O)N[C@@H](Cc1c[nH]cn1)C(=O)N[C@@H](CCCCN)C(=O)NCC(=O)N1[C@H](C(=O)N[C@@H](Cc2ccc(I)cc2)C(=O)N2CCC[C@H]2C(=O)N[C@H](Cc2ccc(-c3ccccc3)cc2)C(=O)O)C[C@@H]2CCCC[C@@H]21)C(=O)O) [apelin polypeptide SEQ ID NO: 216]
0.841	14.9	Tridecanoyl-[γGlu][AEEA][AEEA][dR]Q[hArg]P[dR][NMeL]SHKG[Oic][Nle]P[Phe(4-Cl)]-OH (SMILES CCCCCCCCCCCCC(=O)N[C@@H](CCC(=O)NCCOCCOCC(=O)NCCOCCOCC(=O)N[C@H](CCCNC(=N)N)C(=O)N[C@@H](CCC(N)=O)C(=O)N[C@@H](CCCCNC(=N)N)C(=O)N1CCC[C@H]1C(=O)N[C@H](CCCNC(=N)N)C(=O)N(C)[C@@H](CC(C)C)C(=O)N[C@@H](CO)C(=O)N[C@@H](Cc1c[nH]cn1)C(=O)N[C@@H](CCCCN)C(=O)NCC(=O)N1[C@H](C(=O)N[C@@H](CCCC)C(=O)N2CCC[C@H]2C(=O)N[C@@H](Cc2ccc(Cl)cc2)C(=O)O)C[C@@H]2CCCC[C@@H]21)C(=O)O) [apelin polypeptide SEQ ID NO: 218]
10.1	45	Tridecanoyl-[γGlu][AEEA][AEEA][dR]Q[hArg]P[dR][NMeL]SHKG[Oic][Phe(4-I)]P[Phe(4-Cl)]-OH (SMILES CCCCCCCCCCCCC(=O)N[C@@H](CCC(=O)NCCOCCOCC(=O)NCCOCCOCC(=O)N[C@H](CCCNC(=N)N)C(=O)N[C@@H](CCC(N)=O)C(=O)N[C@@H](CCCCNC(=N)N)C(=O)N1CCC[C@H]1C(=O)N[C@H](CCCNC(=N)N)C(=O)N(C)[C@@H](CC(C)C)C(=O)N[C@@H](CO)C(=O)N[C@@H](Cc1c[nH]cn1)C(=O)N[C@@H](CCCCN)C(=O)NCC(=O)N1[C@H](C(=O)N[C@@H](Cc2ccc(I)cc2)C(=O)N2CCC[C@H]2C(=O)N[C@@H](Cc2ccc(Cl)cc2)C(=O)O)C[C@@H]2CCCC[C@@H]21)C(=O)O) [apelin polypeptide SEQ ID NO: 219]
